Assay results as given in patent publication US6906179B2, “Antibody to SNIP1” (The General Hospital Corporation, priority 1999, dated 2005).
Like-named read-outs stand apart in the source and are kept apart here.

Experiments:
[1] = system: nigral dopamine neurons; settings: cited from earlier work
[2] = system: HsN3 and Smad1 localization; test: Localization of HsN3 and Smad1 in transfected COS cells, confocal microscopy; format: cell-based
Excerpt: Since the activation of BMP type I receptors, either by BMP ligands in the presence of the type II receptor, or by the presence of a point mutation (Q233D), can induce the translocation of Smad1 from the cytoplasm to the nucleus (Hoodless et al., 1996, Wang et al., unpublished data), we examined whether the intracellular localization of the Smad1 interactor HsN3 is also regulated by the constitutively activated BMP type I receptor ALK3Q233D. The localization of endogenous HsN3 in COS cells in the presence or absence of activated Smad1 was studied by immunocytochemistry and confocal microscopy (FIG. 28). In untransfected COS cells, weak signals from endogenous HsN3 were detected in both the cytoplasm and the nucleus, with a monoclonal anti-HsN3 antibody and a FITC-conjugated anti-mouse secondary antibody (FIG. 28A). […]
To directly study how BMPs regulate the localization of HsN3, COS cells were transfected with the wild type BMP type I receptor ALK3 the BMP type II receptor and Smad1. […] In cells not treated with BMP7, the endogenous HsN3 produced a weak signal in both the cytoplasm and the nucleus that was detected with a FITC conjugated secondary antibody (FIG. 28D1), while the expressed Smad1 also produced a signal located throughout the transfected cells that was detected by Rodamine conjugated secondary antibody (FIG. 28D2). […]

[3] = system: SNIP-1 protein level; test: ALK3Q233D-induced degradation of SNIP-1 in transfected COS cells, Western blot; format: cell-based; settings: COS cells transfected with Smad1, DPC4, antizyme and BMP type II and type I (ALK3) receptors, treated with BMP7 (not shown)
Excerpt: The novel Smad1 interactor is a nuclear proteip (termed as Smad1 Nuclear Interactor Protein 1, SNIP-1, SEQ ID No. 3), with a carboxyterminal domain that is highly homologous to the aminoterminus of the nuclear inhibitor of protein phosphatase 1 (NIPP-1) (Wang & Lechleider, unpublished) (FIG. 31A & C). NIPP-1 (VanEynde et al., 1995) is known to be rapidly processed into smaller heat-stable intermediates, a process that may be mediated by proteasome (see Discussion in Jagiello et al., 1995). SNIP-1 is a strong interactor of Smad1, that also binds to both antizyme and HsN3 in the yeast two-hybrid assays (FIG. 311B).
Forty-eight hours after transfection, COS cells were lysed in an equal volume of lysis buffer (300 ul/plate), and the total protein concentration of each sample was measured. No major difference in protein concentration was detected among the lysates. The protein level of SNIP-1 in 100 ug of total protein lysate was determined by Western blot using anti-T7 monoclonal antibody. […] Such a decrease is dependent upon the coexpression of Smad1, DPC4 and antizyme, since replacing each of these three proteins with an unrelated protein (β galactosidase) abolishes such a decrease in ALK3Q233D transfected cells (FIG. 31D, top panel, lanes 9-14). […]

[4] = system: rat sympathetic neurons; test: OP-1 induced dendritic growth of rat sympathetic neurons; format: cell-based; settings: sympathetic neurons
Description: If Smad1 and DPC4 signal through proteasome mediated proteolysis, proteasome inhibitors should block the signaling of BMPs. We thus directly tested the effects of the proteasome inhibitors on the signaling pathways of BMPs that signal via Smad1 activation. […] The EC50 for the inhibitory activity of lactacystin was ˜100 nM and maximal effects were obtained with 4-6 hour pretreatments (not shown).
To determine the time course of sensitivity to lactacystin with respect to the signaling pathway of OP-1, lactacystin was added to the media at various time points after the addition of OP-1 (FIG. 32, bottom panel B).

B1: GDNF: glial cell line-derived neurotrophic factor, member of the TGF-β superfamily (protein, UniProt P39905 78-211, looked up)
Glial cell line-derived …: SPDKQMAVLPRRERNRQAAAANPENSRGKGRRGQRGKNRGCVLTAIHLNVTDLGLGYETKEELIFRYCSGSCDAAETTYDKILKNLSRNRRLVSDKVGQACCRPIAFDDDLSFLDDNLVYHILRKHSAKRCGCI
nigral cell death and atrophy ([1]; intracerebral administration for 4 weeks following lesioning): completely prevented nigral cell death and atrophy
nigral cell death and atrophy ([1]; single 10 μg injection at 1 week post-lesion): partial protective effect

B2: BMP7: OP-1 (BMP7), bone morphogenetic protein, TGF-β family ligand (protein, UniProt P18075 293-431, looked up)
Bone morphogenetic protein 7: STGSKQRSQNRSKTPKNQEALRMANVAENSSSDQRQACKKHELYVSFRDLGWQDWIIAPEGYAAYYCEGECAFPLNSYMNATNHAIVQTLVHFINPETVPKPCCAPTQLNAISVLYFDDSSNVILKKYRNMVVRACGCH
HsN3 signal ([2]; 30 mins after BMP7 treatment (20 ng/ml)): only a nuclear HsN3 signal of increased intensity was detected
endogenous HsN3 and overexpressed Smad1 localization ([2]; 60 mins after BMP7 treatment (20 ng/ml)): accumulated in the nucleus
degradation of SNIP-1 [3]: degradation of SNIP-1 has also been observed
Smad1 localization upon OP-1 treatment [4]: rapid nuclear translocation of Smad1

B3: TGF-β3: TGF-β isoform (protein, UniProt P10600 301-412, looked up)
Transforming growth factor …: ALDTNYCFRNLEENCCVRPLYIDFRQDLGWKWVHEPKGYYANFCSGPCPYLRSADTTHSTVLGLYNTLNPEASASPCCVPQDLEPLTILYYVGRTPKVEQLSNMVVKSCKCS
nigral cell death or atrophy ([1]; similar dosing strategies): no effect
